From the Human Domainome abundance scans (Beltran et al. 2025)
± gives the uncertainty stated by the source.

B1: V(D)J recombination-activating protein 2, residues 415 to 491; numbered along this chain, P55895 (parent)
chain: YWITCCPTCDVDINTWVPFYSTELNKPAMIYCSHGDGHWVHAQCMDLAERTLIHLSAGSNKYYCNEHVEIARALHTP

Variants of: B1
Test: abundance fitness (aPCA) (normalised: wild type 0, dead -1); higher = more abundant; growth selection in yeast, the domain comes from the species named
Details: Homo sapiens
For YWITCCPTCDVDINTWVPFYSTELNKPAMIYCSHGDGHWVHAQCGDLAERTLIHLSAGSNKYYCNEHVEIARALHTP [M45G], the abundance fitness was -0.43 ± 0.058. YWITCCPTCDVDINTWVPFYSTELNKPAMIYCSHGDGHWVHAQCKDLAERTLIHLSAGSNKYYCNEHVEIARALHTP [M45K] showed an abundance fitness of -0.202 ± 0.1. In the case of YWITCCPTCDVDINTWVPFYSTELNKPAMIYCSHGDGHWVHATCMDLAERTLIHLSAGSNKYYCNEHVEIARALHTP [Q43T], the abundance fitness is reported as 0.107 ± 0.36. With YWYTCCPTCDVDINTWVPFYSTELNKPAMIYCSHGDGHWVHAQCMDLAERTLIHLSAGSNKYYCNEHVEIARALHTP [I3Y] the abundance fitness was -0.202 ± 0.098. For YWITCCPTCDVDINTWVPFYSTELNKPAMIYCSHGDGHWVHAQCMDLAERTLIHLSAGSNAYYCNEHVEIARALHTP [K61A], the abundance fitness was 0.017 ± 0.047. For YWITCCPTCDVDINTWVPFYSTELNKPAMIYCSHGDGHWVHAQCMDLAEWTLIHLSAGSNKYYCNEHVEIARALHTP [R50W], the abundance fitness was -0.195 ± 0.066. For YWITCCPTCDVDINTWVPFYSTELNKPAMIYCSHGDGHWVHAQCMDLAESTLIHLSAGSNKYYCNEHVEIARALHTP [R50S], the abundance fitness was 0.092 ± 0.06. Variant YWITCCPTCDVDINTWVPFYSTELNKPAMIYCSHGDGHWVHAQCMDLAEDTLIHLSAGSNKYYCNEHVEIARALHTP [R50D] has an abundance fitness of -0.027 ± 0.096. In the case of YWITCCPTCDVDINTWVPFYSTELNKPAMIYCSHGDGHWVHAQCMDLAEPTLIHLSAGSNKYYCNEHVEIARALHTP [R50P], the abundance fitness is reported as 0.1 ± 0.068. YWITCCPTCDVDINTWVPFYSTELNKPAMIYDSHGDGHWVHAQCMDLAERTLIHLSAGSNKYYCNEHVEIARALHTP [C32D] showed an abundance fitness of -1.14 ± 0.45. YWITCCPTCDVDINTWVPFYSTELNKPAMIYPSHGDGHWVHAQCMDLAERTLIHLSAGSNKYYCNEHVEIARALHTP [C32P] showed an abundance fitness of -0.887 ± 0.16. YWITCCPTCDVDINTWVPFYSTRLNKPAMIYCSHGDGHWVHAQCMDLAERTLIHLSAGSNKYYCNEHVEIARALHTP [E23R] showed an abundance fitness of -1.03 ± 0.24. With YWITCCPTCDVDINTWVPFYSTELNKPAMIYCSHGDGHWVHAQCMDLAERTLIHLSAGSVKYYCNEHVEIARALHTP [N60V] the abundance fitness was -0.04 ± 0.068. With KWITCCPTCDVDINTWVPFYSTELNKPAMIYCSHGDGHWVHAQCMDLAERTLIHLSAGSNKYYCNEHVEIARALHTP [Y1K] the abundance fitness was -0.365 ± 0.17. Variant YWITCCPTCDVDINTWVPFYSTELNKPAMIYCSHGDGHWVHAQCMHLAERTLIHLSAGSNKYYCNEHVEIARALHTP [D46H] has an abundance fitness of -0.071 ± 0.11. In the case of YWITCCPTCDVDINTWVPFYSTELNKPAMIYCSHGDGHWVHAQCMDLAERTLIHLSAGSNKYYCNEHNEIARALHTP [V68N], the abundance fitness is reported as -0.219 ± 0.4. For YWITCCPTCDVDINTWVPFYSTELNKPAMIYCSHGDGHWVHAQCMDLAERTLIHLSAGSNKYYCNEHREIARALHTP [V68R], the abundance fitness was -0.163 ± 0.18. In the case of YWITCCPTCDVRINTWVPFYSTELNKPAMIYCSHGDGHWVHAQCMDLAERTLIHLSAGSNKYYCNEHVEIARALHTP [D12R], the abundance fitness is reported as 0.107 ± 0.12. With YWITCCPTCDVDINTWVPFYSTELNKPAMIYCSHGDGHWSHAQCMDLAERTLIHLSAGSNKYYCNEHVEIARALHTP [V40S] the abundance fitness was -0.456 ± 0.095. Variant YWITCCPTCDVDINTWVPFYSTELNKPAMIYCSHGDGHWVHAQCMDLAERTLIHLSAFSNKYYCNEHVEIARALHTP [G58F] has an abundance fitness of -0.221 ± 0.14. Work on YWITCCPTCDVDINTWVPFYSTELNKPAMIYCSHGDGHWVHAQCMDLAERTLIHLSAGSNKYYTNEHVEIARALHTP [C64T] yielded an abundance fitness of -1.05 ± 0.4. In the case of YWITCCPTCDVDINTWVPFYSTELNKPAMIYCSHGDGHWVHAQCMDLAERTLIHLSAGSNKYYCNEHVEIARALSTP [H75S], the abundance fitness is reported as -0.042 ± 0.081. Variant YWITCCPTCDVDINTWVPFYSTELNKPAMIYCSHGDGHWVHAQCMDLAERTLIHLSAGSNKYYCNEHVEIGRALHTP [A71G] has an abundance fitness of -0.051 ± 0.05. For YWITCRPTCDVDINTWVPFYSTELNKPAMIYCSHGDGHWVHAQCMDLAERTLIHLSAGSNKYYCNEHVEIARALHTP [C6R], the abundance fitness was -0.432 ± 0.17. For YWITCCPTCLVDINTWVPFYSTELNKPAMIYCSHGDGHWVHAQCMDLAERTLIHLSAGSNKYYCNEHVEIARALHTP [D10L], the abundance fitness was 0.102 ± 0.2. Work on YWITCCPTCDVDINTWVPFYSTELNKPAMIACSHGDGHWVHAQCMDLAERTLIHLSAGSNKYYCNEHVEIARALHTP [Y31A] yielded an abundance fitness of -0.193 ± 0.074. Work on YWITCCPTCDVDINTWVPFYSTELNKPAMIWCSHGDGHWVHAQCMDLAERTLIHLSAGSNKYYCNEHVEIARALHTP [Y31W] yielded an abundance fitness of -0.193 ± 0.062. Work on YWITCCPTCDVDINTWVPFYSTELNKPAMIYCSHGDGHWVHAQCMDEAERTLIHLSAGSNKYYCNEHVEIARALHTP [L47E] yielded an abundance fitness of -0.307 ± 0.081. In the case of YWITCCPTCDVDINTWVPFYSTELNKPAMIYCSHGDGHWVHAQCMDSAERTLIHLSAGSNKYYCNEHVEIARALHTP [L47S], the abundance fitness is reported as -0.277 ± 0.047. For YWITCCPTCDVDINTWVPFYSTELNKPAMIYCSHGDGHWVHAQCMDLAERTLIHLSCGSNKYYCNEHVEIARALHTP [A57C], the abundance fitness was -0.124 ± 0.11. With YWITCCPTCDVDINTWVPFYSTELNKPAMIYCSHGDGHWVHAQCMDLAERTLIHLSAGSNKYYCKEHVEIARALHTP [N65K] the abundance fitness was -0.047 ± 0.081. YWITCCPTCDVDINTWVPFYSTELNKPAMIYCSHGDGHWVHAQCMDLAERTLIHLSAGSNKYYCHEHVEIARALHTP [N65H] gave an abundance fitness of 0.003 ± 0.16. Variant YWITCCPTCDVDINTWVPFYSTELNKLAMIYCSHGDGHWVHAQCMDLAERTLIHLSAGSNKYYCNEHVEIARALHTP [P27L] has an abundance fitness of -0.861 ± 0.21. Work on YWITCCPTCDVDINTWVPFYSTELNKPAMIYCSHGDGHWVHAQCMDLAWRTLIHLSAGSNKYYCNEHVEIARALHTP [E49W] yielded an abundance fitness of -0.292 ± 0.071. For YWITCCPTCDVDINTWVPEYSTELNKPAMIYCSHGDGHWVHAQCMDLAERTLIHLSAGSNKYYCNEHVEIARALHTP [F19E], the abundance fitness was -0.179 ± 0.16. YWITCCPTCDVDINTWVPGYSTELNKPAMIYCSHGDGHWVHAQCMDLAERTLIHLSAGSNKYYCNEHVEIARALHTP [F19G] showed an abundance fitness of -0.142 ± 0.19.
